Measured values taken from article PMC9126151.

Target: non-translating 70S ribosome (E. coli) (UniProt P0AG44)
Assay: FRET or BRET

Substance | Kd [µM]
methionine aminopeptidase MAP(H79A), TMR-labelled (from UniProt P0AE18 1-264) (enzyme) | 5.4
peptide deformylase PDF(E133A), TMR-labelled (enzyme) | 7.3
